Measurements from patent US20120149881A1.

Target: human IgE with the M1′ sequence (long form of membrane IgE) expressed on transduced BJAB or Daudi cells (human) (UniProt P01854)
Experiment: number printed in the titration panel; FIG. 3M calls these numbers 'Scatchard Results' (BJAB-Long cells)

Chain of human IgE with the M1′ sequence (long form of membrane IgE) expressed on transduced BJAB or Daudi cells (human) (P01854 116-546 I515L limits assumed): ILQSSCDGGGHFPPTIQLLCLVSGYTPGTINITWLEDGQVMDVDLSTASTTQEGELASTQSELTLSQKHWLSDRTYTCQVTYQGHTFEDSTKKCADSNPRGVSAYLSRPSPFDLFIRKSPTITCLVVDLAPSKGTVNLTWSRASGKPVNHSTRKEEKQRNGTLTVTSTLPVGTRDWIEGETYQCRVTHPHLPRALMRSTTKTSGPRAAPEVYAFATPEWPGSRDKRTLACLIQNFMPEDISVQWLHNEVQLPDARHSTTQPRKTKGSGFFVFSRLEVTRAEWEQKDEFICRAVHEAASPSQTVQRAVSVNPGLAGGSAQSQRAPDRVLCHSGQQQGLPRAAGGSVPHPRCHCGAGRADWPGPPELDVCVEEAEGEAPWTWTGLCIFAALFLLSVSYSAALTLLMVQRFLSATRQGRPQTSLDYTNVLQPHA

Substance: anti-human IgE antibody MAE11
- Kd: 0.04 nM
